Tests used:
[1] = target: T1, Recombinant Human ErbB3/FC Chimera-His tag (human, UniProt P21860 20-643); assay: SPR (Biacore), C-terminal VD;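 also: surface plasmon resonance with DVD-Ig proteins captured on an anti-IgG chip and recombinant antigen flowed over in HBS-EP buffer, Langmuir global fit, KD taken as koff/kon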
T1 construct: bought reagent

[2] = target: T2, Recombinant Human MSP Receptor ECD-His tag (human, UniProt Q04912 25-957); assay: SPR (Biacore), N-terminal VD;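 also: capture of antibodies or DVD-Ig proteins on an anti-mouse IgG chip surface, recombinant antigen injected at 10–200 nM in HBS-EP running buffer at 25 °C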
T2 construct: extracellular domain; bought reagent; also called RON
Protocol: (§1) The BIACORE assay (Biacore, Inc, Piscataway, N.J.) determined the affinity of antibodies or DVD-Ig proteins with kinetic measurements of on-rate and off-rate constants. Binding of antibodies or DVD-Ig proteins to a target antigen (for example, a purified recombinant target antigen) was determined by surface plasmon resonance-based measurements with a Biacore® 1000 or 3000 instrument (Biacore AB, Uppsala. Sweden) using running HBS-EP (10 mM HEPES [pH 7.4], 150 mM NaCl, 3 mM EDTA, and 0.005% surfactant P20) at 25° C. […] For example, approximately 5000 RU of goat anti-mouse IgG, (Fcγ), fragment specific polyclonal antibody (Pierce Biotechnology Inc, Rockford, Ill.) diluted in 10 mM sodium acetate (pH 4.5) was directly immobilized across a CM5 research grade biosensor chip using a standard amine coupling kit according to manufacturer's instructions and procedures at 25 μg/ml. Unreacted moieties on the biosensor surface were blocked with ethanolamine. Modified carboxymethyl dextran surface in flowcell 2 and 4 was used as a reaction surface. Unmodified carboxymethyl dextran without goat anti-mouse IgG in flow cell 1 and 3 was used as the reference surface. For kinetic analysis, rate equations derived from the 1:1 Langmuir binding model were fitted simultaneously to association and dissociation phases of all eight injections (using global fit analysis) with the use of Biaevaluation 4.0.1 software. Purified antibodies or DVD-Ig proteins were diluted in HEPES-buffered saline for capture across goat anti-mouse IgG specific reaction surfaces. Antibodies or DVD-Ig proteins to be captured as a ligand (25 μg/ml) were injected over reaction matrices at a flow rate of 5 μl/minute. The association and dissociation rate constants, kₒₙ (M⁻¹s⁻¹) and koff (s⁻¹) were determined under a continuous flow rate of 25 μl/minute. Rate constants were derived by making kinetic binding measurements at different antigen concentrations ranging from 10-200 nM. The equilibrium dissociation constant (M) of the reaction between antibodies or DVD-Ig proteins and the target antigen was then calculated from the kinetic rate constants by the following formula: KD=koff/kₒₙ. Binding was recorded as a function of time and kinetic rate constants were calculated.

[3] = target: T3, Recombinant Human EGFR ECD (human, UniProt P00533 25-645); assay: SPR (Biacore), N-terminal VD;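 also: capture of antibodies or DVD-Ig proteins on an anti-mouse IgG chip surface, recombinant antigen injected at 10–200 nM in HBS-EP running buffer at 25 °C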
T3 construct: extracellular domain; bought reagent
Protocol: as §1

| binding result [1] | Kd [2] [nM] | koff [2] [s⁻¹] | kon [2] [M⁻¹ s⁻¹] | Kd [3] [nM] | koff [3] [s⁻¹] | kon [3] [M⁻¹ s⁻¹] | Binder |
| --- | --- | --- | --- | --- | --- | --- | --- |
| no binding (tested: 10-200 nM) | – | – | – | – | – | – | DVD2274 (bispecific antibody, DVD-Ig, outer AB080 / inner AB062) VH: EVQLVESGGGLVQPGGSLRLSCAASGFTFTDYTMDWVRQAPGKGLEWVADVNPNSGGSIYNQRFKGRFTLSVDRSKNTLYLQMNSLRAEDTAVYYCARNLGPSFYFDYWGQGTLVTVSSASTKGPQVQLQQWGAGLLKPSETLSLTCAVYGGSFSGYYWSWIRQPPGKGLEWIGEINHSGSTNYNPSLKSRVTISVETSKNQFSLKLSSVTAADTAVYYCARDKWTWYFDLWGRGTLVTVSS VL: DIQMTQSPSSLSASVGDRVTITCKASQDVSIGVAWYQQKPGKAPKLLIYSASYRYTGVPSRFSGSGSGTDFTLTISSLQPEDFATYYCQQYYIYPYTFGQGTKVEIKRTVAAPDIEMTQSPDSLAVSLGERATINCRSSQSVLYSSSNRNYLAWYQQNPGQPPKLLIYWASTRESGVPDRFSGSGSGTDFTLTISSLQAEDVAVYYCQQYYSTPRTFGQGTKVEIK |
| no binding (tested: 10-200 nM) | 17 | 0.00092 | 55000 | – | – | – | DVD2318 (bispecific antibody, DVD-Ig, outer AB005 / inner AB063) VH: EVQLVQSGGGLVKPGGSLRLSCAASGFTFSSYAMHWVRQAPGKGLEWVAVISYDGSNKYYADSVKGRFTISRDNSKNTLYLQMNSLRAEDTAVYYCARFSGWPNNYYYYGMDVWGQGTTVTVSSASTKGPEVQLVESGGGLVQPGGSLRLSCAASGFTFSIYSMNWVRQAPGKGLEWVSYISSSSSTIYYADSVKGRFTISRDNAKNSLYLQMNSLRDEDTAVYYCARDRGDFDAFDIWGQGTMVTVSS VL: DVVMTQSPLSLPVTPGEPASISCRSSQSLLHSNGFNYVDWYLQKPGQSPHLLIYFGSYRASGVPDRFSGSGSGTDFTLKISRVEAEDVGVYYCMQALQTPPWTFGQGTKVEIRRTVAAPDIQMTQSPSSLSASVGDRVTITCQASQDITNYLNWYQQKPGKAPKLLIYDASNLETGVPSRFSGSGSGTDFTFTISSLQPEDIATYNCQQCENFPITFGQGTRLEIK |
| – | – | – | – | 0.76 | 0.00045 | 580000 | DVD2349 (bispecific antibody) VH: EVQLVESGGGLVQPGGSLRLSCAASGFSLTNYGVHWVRQAPGKGLEWLGVGWSGGNTDYNTPFTSRLTINKDNSKNTVYLQMNSLRAEDTAVYYCARALTWYDYEFAYWGQGTLVTVSSASTKGPQVQLQESGPGLVKPSQTLSLTCTVSGYSISSDFAWNWIRQPPGKGLEWMGYISYSGNTRYQPSLKSRITISRDTSKNQFFLKLNSVTAADTATYYCVTAGRGFPYWGQGTLVTVSS VL: DILLTQSPGTLSLSPGERATLSCRASQSIYTNIHWYQQKPGQAPRLLIKYASESISGIPDRFSGSGSGTDFTLTISRLEPEDFAVYYCQQNLNWPTTFGQGTKLEIKRTVAAPDIQMTQSPSSMSVSVGDRVTITCHSSQDINSNIGWLQQKPGKSFKGLIYHGTNLDDGVPSRFSGSGSGTDYTLTISSLQPEDFATYYCVQYAQFPWTFGGGTKLEIK |
| no binding (tested: 10-200 nM) | 25 | 0.00094 | 37000 | – | – | – | DVD2320 (bispecific antibody, DVD-Ig, outer AB005 / inner AB116) VH: EVQLVQSGGGLVKPGGSLRLSCAASGFTFSSYAMHWVRQAPGKGLEWVAVISYDGSNKYYADSVKGRFTISRDNSKNTLYLQMNSLRAEDTAVYYCARFSGWPNNYYYYGMDVWGQGTTVTVSSASTKGPEVQLLESGGGLVQPGGSLRLSCAASGFTFSHYVMAWVRQAPGKGLEWVSSISSSGGWTLYADSVKGRFTISRDNSKNTLYLQMNSLRAEDTAVYYCTRGLKMATIFDYWGQGTLVTVSS VL: DVVMTQSPLSLPVTPGEPASISCRSSQSLLHSNGFNYVDWYLQKPGQSPHLLIYFGSYRASGVPDRFSGSGSGTDFTLKISRVEAEDVGVYYCMQALQTPPWTFGQGTKVEIRRTVAAPQSALTQPASVSGSPGQSITISCTGTSSDVGSYNVVSWYQQHPGKAPKLIIYEVSQRPSGVSNRFSGSKSGNTASLTISGLQTEDEADYYCCSYAGSSIFVIFGGGTKVTVL |

— patent US20130195871A1 (AbbVie / Abbott, published 2013)
